Test results as given in patent US9151744B2, “Lung tissue model” (Pécsi Tudományegyetem, priority 2009, dated 2015).

Key:
[1] = tested on: SAEC-NHLF lung micro-tissue; experiment: Wnt11 treatment of 3D SAEC-NHLF lung micro-tissue: marker expression (qRT-PCR, PCR, immunofluorescence); type: cell-based, human; settings: for AQP3 expression / E-cadherin expression / N-cadherin expression (EMT marker) / S100A4 expression (EMT marker) / SLUG expression (EMT marker): 3D cultures, Wnt11 SN vs control SN, mRNA in sorted lung epithelium; for pro-SFTPC protein expression: immunofluorescence, 3D micro-tissue, 72 hours, vs control SN
Method: (§1) Primary SAEC, NHLF and pulmonary HMVEC cells were purchased from Lonza. All cell types were isolated from the lungs of multiple random donors of different sexes and ages. We used SAGM, FGM or EGM-2 medium for the initial expansion of SAEC, NHLF or pulmonary HMVEC, respectively, as recommended by the manufacturer. All types of cell cultures were incubated in an atmosphere containing 5% CO2, at 37° C. For 2D and 3D culturing, pure or mixed cell populations were cultured in a 50-50% mixture of SAGM (Small Airway Growth Medium, Lonza) and complete DMEM. For two and three-cell cultures containing HMVEC cells, the appropriate growth factor supplements for HMVEC cells were added to the 50-50% mixture of SAGM and DMEM. The compositions of cell culture media were prepared in accordance with instructions of the manufacturer. For 2D and 3D culturing, cells were mixed at the indicated ratios and dispensed onto flat-bottom 6 well plates or 96-well V-bottom plates (Sarstedt), respectively. V-bottom plates were immediately centrifuged after cell seeding at 600×g for 10 minutes at room temperature.
SAEC and NHLF were stained with CFSE and DiI according to manufacturers instructions (Molecular probes). Cells were mixed and cultured for 72 hours in 2D and 3D systems. Stained cells were dissociated by mild trypsin treatment followed by PBS+EDTA treatment. Dissociated cells were sorted using a BD FACSVantage cell sorter into tubes with lysis buffer for mRNA preparation (Miltenyi Biotech).
After culturing cells in 3D for 3 days, micro-tissues were carefully removed from the V-bottom plates and fixed in 4% formaline for 10 minutes at room temperature. Fixed samples were covered with TissueTech cryostate embedding medium and 8 μm thick frozen sections were made. Sections were permeabilized in PBS buffer containing 0.1% saponine and 5% BSA for 30 minutes. Primary and secondary antibodies were diluted in the same buffer and incubated with the samples for 1-1 hour. Fluorescent images were acquired using an Olympus IX-81 fluorescent microscope. To ensure the comparability of expression levels of SFTPC, AQP3 and N-cad in Wnt11-SN— or Wnt11 siRNA-treated samples to their matched untreated controls, all images were captured with the same exposition settings.
Retroviral infection. Retroviral supernatants were generated from retroviral vectors containing Wnt11-GFP, or green fluorescence protein (GFP) only, in 293 cells. Epithelial cell line A549 was transformed using the above viruses in 24-well-plates, in 250 μl of viral supernatant and 50 μl of DMEM polybrene mix (final conc.: 8 μg/ml)/well, and then centrifuged for 60 min at 2100 rpm at room temperature. The cells were incubated for 3 days in fresh DMEM containing 10% FCS, then sorted based on GFP expression using FACSVantage cell sorter (BD Biosciences). GFP positive cells were then cultured as described above. The presence of Wnt11 protein were verified by immunoblotting and immunofluorescence using Wnt11 specific polyclonal antibody (AbCam) (FIG. 7).
All samples were set up in duplicates. Briefly, Ct values were determined for each sample using an automatic threshold level determined by the 7500 System SDS Software. Delta Ct (dCt) values were determined according to the following formula: dCt(target gene)=Ct(target gene)−Ct(housekeeping gene). Changes in gene expression are shown as RQ values calculated using the next formula: RQ=2^−ddCt, where ddCt values were calculated as ddCt=dCt(sample)−dCt(reference sample).

[2] = tested on: SAEC-NHLF lung micro-tissue; experiment: Wnt11 SN treatment of 3D lung micro-tissue: haematoxilin-eosin morphology; type: cell-based, human; settings: 3D micro-tissue, 72 hours, vs control A549 SN
Method: as §1
Retroviral infection. Retroviral supernatants were generated from retroviral vectors containing Wnt11-GFP, or green fluorescence protein (GFP) only, in 293 cells. […]

B1: Wnt11: Wnt11 protein, applied as supernatant (SN) of A549 cells transfected with lentiviral full-length Wnt11-IRES-GFP construct (protein, UniProt O96014 1-354, looked up)
chain: MRARPQVCEALLFALALQTGVCYGIKWLALSKTPSALALNQTQHCKQLEGLVSAQVQLCRSNLELMHTVVHAAREVMKACRRAFADMRWNCSSIELAPNYLLDLERGTRESAFVYALSAAAISHAIARACTSGDLPGCSCGPVPGEPPGPGNRWGGCADNLSYGLLMGAKFSDAPMKVKKTGSQANKLMRLHNSEVGRQALRASLEMKCKCHGVSGSCSIRTCWKGLQELQDVAADLKTRYLSATKVVHRPMGTRKHLVPKDLDIRPVKDSELVYLQSSPDFCMKNEKVGSHGTQDRQCNKTSNGSDSCDLMCCGRGYNPYTDRVVERCHCKYHWCCYVTCRRCERTVERYVCK
modifications: full-length
notes: Wnt11 protein, applied as supernatant (SN) of A549 cells transfected with lentiviral full-length Wnt11-IRES-GFP construct
For B1, the AQP3 expression [1] was “up-regulation”, the E-cadherin expression [1] was “up-regulation” and the “N-cadherin expression (EMT marker)” value [1] was “down-regulation”. For the same molecule, the “S100A4 expression (EMT marker)” value [1] was “down-regulation”, the “SLUG expression (EMT marker)” value [1] was “down-regulation” and the AQP3 expression ([1]; listed as Wnt11 SN) was “increased”. The E-cadherin expression ([1]; listed as Wnt11 SN) was “increased”, the “N-cadherin expression (EMT marker)” value ([1]; listed as Wnt11 SN) was “decreased” and the “S100A4 expression (EMT marker)” value ([1]; listed as Wnt11 SN) was “decreased”. For the same molecule, the “SLUG expression (EMT marker)” value ([1]; listed as Wnt11 SN) was “decreased”, the “SFTPA mRNA levels” value ([1]; PCR, Wnt11 treated cultures vs untreated control) was “significant increase” and the “surfactant expression (ATII type differentiation of alveolar epithelium)” value ([1]; all studied culture conditions, in the presence of fibroblasts) was “drastic boost”. The pro-SFTPC protein expression [1] was “radical increase”, the pro-SFTPC protein expression ([1]; listed as Wnt11 SN) was “dramatic increase” and the “epithelial cell morphology (HE staining)” value [2] was “increased number of cells with cuboid-like morphology”.
